{"source": "a protein production outcome set (Wang et al. 2014)", "experiment": "label from the status in PepcDB records"}
{"sequence": "MGSLQPDAGNASWNGTEAPGGGARATPYSLQVTLTLVCLAGLLMLLTVFGNVLVIIAVFTSRALKAPQNLFLVSLASADILVATLVIPFSLANEVMGYWYFGKAWCEIYLALDVLFCTSSIVHLCAISLDRYWSITQAIEYNLKRTPRRIKAIIITVWVISAVISFPPLISIEKKGGGGGPQPAEPRCEINDQKWYVISSCIGSFFAPCLIMILVYVRIYQIAKRRTRVPPSRRGPDAVAAPPGGTERRPNGLGPERSAGPGGAEAEPLPTQLNGAPGEPAPAGPRDTDALDLEESSSSDHAERPPGPRRPERGPRGKGKARASQVKPGDSLPRRGPGATGIGTPAAGPGEERVGAAKASRWRGRQNREKRFTFVLAVVIGVFVVCWFPFFFTYTLTAVGCSVPRTLFKFFFWFGYCNSSLNPVIYTIFNHDFRRAFKKILCRGDRKRIV", "values": [{"measurement": "protein production", "result": "failed"}]}
{"sequence": "MGALRGRWAEEEALRFLLGKGYRLLWRNRRTPFGEVDLFMEKDGVYVVVEVKQRASARFGAPLEAITPGKVRRLLQSARFLLGRDDLPVRLEAVLVHGTPKDFRLEHLVLEL", "values": [{"measurement": "protein production", "result": "failed"}]}
{"sequence": "MYSPFEILYLAIIIDSLSYTIGALLYGSPIPVRGFKEMGHKMIVNSIYVAVLANIFGLILSILSQLQNIVGANWSTFYLDIGLLQIQTGVAINMGKFLYGIIALILYYFKVPSQFYSLVTPLLQYISFLTDILILLNFYMDLGIFIQSSYMVLIAIGILLMALPFQMGKGIGAMLISFTIVFYVGLPLLPILISNSSPLQNQNFVLQDISLQTEEFYAQIPALFYSFILIPLTYVGVLVGFSVVLQSFIGGYVGRLPIPVEI", "values": [{"measurement": "protein production", "result": "failed"}]}
{"sequence": "MYSYADRIRAVALYIKLGLRVRATIRQLGYPTKNALKGWYQHYLKHQDLPASQAPRAPKYSLQQRQVAIAHYLAHDRCIAATMRALGYPGRGTLTAWVRQDCPDTCKSRVGRSWPATKPDALMCEGVVQLCARRSSAQQIADKLGVCRGTLYNWKNQLLGPCAPASMKHSPKRSPVLDEAALRRQVESLRQDVRRLKIERELLKQAHEILKNGADIDLHRLANKDKAVLVEALHGQYELPELLSLVGLARSSYFYHRARLKLADKYVDLRRSITEIFDNNYRCYGYRRVQASLLKECTGISEKVVRRLMKQEGLIVAKPKRRRYNSYLGEIGAAPQNLINRDFRAAAPNEKWLTDITELQIPAGKVYLSPVIDCFDGLVVSWSIGTHPNAHLVNTMLDAAIDAVQGSESRPVIHSDRGAHYRWPGWLSRVHDAKLTRSMSRKGCSPDNAACEGFFGRLKMELFYPNNWQSTTIEQFIEAVDAYIRWYNEKRIKVSLGRLSPVEYRHKLGLAA", "values": [{"measurement": "protein production", "result": "failed"}]}
{"sequence": "AAPPAPAAKPGSPKKRGKTEVNESLLTPRFYTTDFDEMEQLFNAEINKQLNQDEFDALLQEFKTDYNQTHFIRNPEFKEAADKMQGPLRQIFVEFLERSCTAEFSGFLLYKELGRRLKKTNPVVAEIFSLMSRDEARHAGFLNKGLSDFNLALDLGFLTKARKYTFFKPKFIFYATYLSEKIGYWRYITIFRHLKANPEYQVYPIFKYFENWCQDENRHGDFFSALLKAQPQFLNDWKAKLWSRFFCLSVYITMYLNDCQRSAFYEGIGLNTKEFDMHVIYETNRTTARIFPAVPDVENPEFKRKLDRMVDINLKIISIGESNDLPLVKNLKRVPLIAQLVSEIIAAYLMPPIESGSVDFAEFEPKLVY", "values": [{"measurement": "protein production", "result": "failed"}]}
{"sequence": "MILAVLFANSVGNVLIERFNGVPAEERLHWRSFLVKLGADNLKGVKNEELLVACHKSVYIVYTMLGDVSIFLVGKDEYDELALAETIYIITAAVKDVCGKPPTERVFLDKYGRICLCLDEIVWNGLLENTDKDRIKRLIRLKPPSEV", "values": [{"measurement": "protein production", "result": "failed"}]}
{"sequence": "MLKKIDDSESLLDTAALAPLQRFVERECRLLDEQRFEEWLALYLPEATYWAPATRDNPDPDSQVSLFWDDKETMQTRVQRLLHPEIHSQIPASVTVRLTSNFRAAVAPGGEKDAYQVECRFIMVEDRLGSPRQQFAGTFNYLLVQNGAAFRIRQKRVDLTNCDHAFHTLTQPF", "values": [{"measurement": "protein production", "result": "not failed"}]}
{"sequence": "MKVFVIGAGLMGRGIAIAIASKHEVVLQDVSEKALEAAREQIPEELLSKIEFTTTLEKVKDCDIVMEAVFEDLNTKVEVLREVERLTNAPLCSNTSVISVDDIAERLDSPSRFLGVHWMNPPHVMPLVEIVISRFTDSKTVAFVEGFLRELGKEVVVCKGQSLVNRFNAAVLSEASRMIEEGVRAEDVDRVWKHHLGLLYTLFGPLGNLDYIGLDVAYYASLYLYKRFGDEKFKPPEWLQEKIKKGEVGVKAGKGIYEYGPKAYEERVERLKKLLRFLGLE", "values": [{"measurement": "protein production", "result": "not failed"}]}
{"sequence": "MNPIKPPFTLNQYFAAWFVHVFTASAACIGVFSLYKIYQHDYVFALWLMAITVFIDAVDGSLARLVHVKSVLPKIDGALLDNIVDYLNYVITPCFFLLVKPGMLPADYVVPITAAITITSAYQFCQDDAKTPDHFFKGFPCYWNITVFYMYIFNTSMIVNTVLLSLFCVLIFIPVKYVYPSRLDYLTESRVLKILMHCCSALYGISSFCLLVNYPETNKLWVSLSLGYVGMYLFLSFYRTYYPMFKAKITANNKD", "values": [{"measurement": "protein production", "result": "failed"}]}
{"sequence": "MTELVTFGETMLRLSPPGDERLETADQYAVRAAGAESNVAVAAQRLGVDAMWASKLPDSPVGRRVTGELKHHGVSVDVAWDDSDSARQGTYYLEQGSPPRGNDVIYDRQNASVTTATPAELPTEAIADAAGFHTSGITPALSETLESTTADLLSLAQDAGTTTSFDLNYRSKLWTPAEARSVLTELFPSVDLLVVAERDANVVLDRTGDAETIARDLAAEYGFEATVITRGSDGALALADGTVTEQPTFESTDAHPVGTGDSFVGGFLSQYLSGGTVADGLAWGAATAALKRTIPGDIAVVSPDEIRSILSGDTEAISR", "values": [{"measurement": "protein production", "result": "failed"}]}
{"sequence": "MPEITESERAYHLRKMKTRMQRVDVTGDGFISREDYELIAVRIAKIAKLSAEKAEETRQEFLRVADQLGLAPGVRISVEEAAVNATDSLLKMKGEEKAMAVIQSLIMYDCIDTDKDGYVSLPEFKAFLQAVGPDLTDDKAITCFNTLDFNKNGQISRDEFLVTVNDFLFGLEETALANAFYGDLVD", "values": [{"measurement": "protein production", "result": "not failed"}]}
{"sequence": "MKTTKIVIASLVSLTMVSNPLLTFAATNDVIDNTTEITTDKETSSTQPTIKNTLKAGQTQSFNDWFPDDNFASEVAAAFEMQATDTISEEQLATLTSLDCHNSSITDMTGIEKLTGLTKLICTSNNITTLDLSQNTNLTYLACDSNKLTNLDVTPLTKLTYLNCDTNKLTKLDVSQNPLLTYLNCARNTLTEIDVSHNTQLTELDCHLNKKITKLDVTPQTQLTTLDCSFNKITELDVSQNKLLNRLNCDTNNITKLDLNQNIQLTFLDCSSNKLTEIDVTPLTQLTYFDCSVNPLTELDVSTLSKLTTLHCIQTDLLEIDLTHNTQLIYFQAEGCRKIKELDVTHNTQLYLLDCQAAGITELDLSQNPKLVYLYLNNTELTELDVSHNTKLKSLSCVNAHIQDFSSVGKIPALNNNFEAEGQTITMPKETLTNNSLTIAVSPDLLDQFGNPMNIEPGDGGVYDQATNTITWENLSTDNPAVTYTFTSENGAIVGTVTTPFEAPQPIKGEDVTVHYLDDKGEKLADDEVLSGNLDDPYTSSAKDIPDYTLTTTPDNATGTFTTTSQSVTYVYTKNIVAAEPVTVNYVDDTGKTLSPSEILNGNVGDTYNATAKQIDGYTLSAEPTNATGQFTSSAQTVNYIYTKNPAPEKGVVEIHYVDEDNKQLNSTTEISGTIGDNYTTEPKTIEGYTLTTTPGNATGTFTTGSQTVTYVYTKNIEAAEPITVNYVDANGKTLAPSETLNGNVGDTYKATAKQIDGYTLSAEPTNATGQFTSSAQTVNYIYTKNTNTDQPLPTKKPTNTTPTKPSNLKTTEVKKASDTLPKTGDSAPWKSALLGVFLSSTALVIWKKKK", "values": [{"measurement": "protein production", "result": "failed"}]}
{"sequence": "MARPAYRLLAYSLWDLIPIAMAVAHFAFVLWLVLDFHALSWWVILPAALLYAVSLSWSINSISHNQIHNAYFTPGWMNRGFDLLLSVTIGFSQTLYRDIHNRHHRGNSDLPDANGKTVDPLSIYLHGKDGQPDNPWAYTFLSFFRDDPKEIYQEMQRKRPDDARWVKVEIGVTVAFYLALALYDWHAVLVLLPFWYLGQSLSSLNGYYEHLGGNPDLPIAWGVSSYSPLYNLIWMNNGYHAEHHYRPKMHWTKVKAFHREIREQQRAAGVKVIPVSHGLGFLVAHRKV", "values": [{"measurement": "protein production", "result": "failed"}]}
{"sequence": "MGAASCEDEELEFKLVFGEEKEAPPLGAGGLGEELDSEDAPPCCRLALGEPPPYGAAPIGIPRPPPPRPGMHSPPPRPAPSPGTWESQPARSVRLGGPGGGAGGAGGGRVLECPSIRITSISPTPEPPAALEDNPDAWGDGSPRDYPPPEGFGGYREAGAQGGGAFFSPSPGSSSLSSWSFFSDASDEAALYAACDEVESELNEAASRFGLGSPLPSPRASPRPWTPEDPWSLYGPSPGGRGPEDSWLLLSAPGPTPASPRPASPCGKRRYSSSGTPSSASPALSRRGSLGEEGSEPPPPPPLPLARDPGSPGPFDYVGAPPAESIPQKTRRTSSEQAVALPRSEEPASCNGKLPLGAEESVAPPGGSRKEVAGMDYLAVPSPLAWSKARIGGHSPIFRTSALPPLDWPLPSQYEQLELRIEVQPRAHHRAHYETEGSRGAVKAAPGGHPVVKLLGYSEKPLTLQMFIGTADERNLRPHAFYQVHRITGKMVATASYEAVVSGTKVLEMTLLPENNMAANIDCAGILKLRNSDIELRKGETDIGRKNTRVRLVFRVHVPQGGGKVVSVQAASVPIECSQRSAQELPQVEAYSPSACSVRGGEELVLTGSNFLPDSKVVFIERGPDGKLQWEEEATVNRLQSNEVTLTLTVPEYSNKRVSRPVQVYFYVSNGRRKRSPTQSFRFLPVICKEEPLPDSSLRGFPSASATPFGTDMDFSPPRPPYPSYPHEDPACETPYLSEGFGYGMPPLYPQTGPPPSYRPGLRMFPETRGTT", "values": [{"measurement": "protein production", "result": "not failed"}]}
{"sequence": "MPNANEDNPSALSQVQRRAVSELLRVSPVADELARRFQEAGFSLALVGGSVRDALLGRLGNDLDFTTDARPEDVLKIVRPWADAMWEVGIAFGTVGAQKEGYQIEVTTYRSEAYDRTSRKPEVSYGDSIEEDLVRRDFTVNAMAVALPEKEFIDPHGGLDDLAARILRTPGTPEESFSDDPLRMMRAARFAAQLDFEVAPDVVTAMTEMAGRIDIVSAERVRDELNKLVLSAHPRKGLTLLVDTGLADHVLPELPALRLERDEHHRHKDVYDHSLIVLEQAIALEENGPDLTLRLAALLHDIGKPRTRRFEKDGRVSFHHHEVVGAKMTKKRMTALKYSNDLVKDVSRLVELHLRFHGYGTGEWTDSAVRRYVRDAGPLLDRLHKLTRSDCTTRNKRRAAALSRAYDGLEERIAQLQEQEELDAIRPDLDGNQIMEVLGVGPGPVIGQAYKFLLELRLENGPMEYDAAVAALKEWWAEQN", "values": [{"measurement": "protein production", "result": "failed"}]}
{"sequence": "SHRSAAAFVDAERELFVRDQPIGPDDRVLAGLSVAFDASCEEMWLAWGHGACLVPAPRSLVRTGLDLGPWLISRDISIVSTVPTLAGMWPAEALDNVRLLILGGEACSAELVARVASSRREVWNTYGPTEATVVTCAARLEAGQPVAIGLPLAG", "values": [{"measurement": "protein production", "result": "failed"}]}
{"sequence": "MNLHQTVEHEAAAAFAAAGIAGSPVVLQPTKNAEHGDFQINGVMGAAKKAKQNPRELAQKVADALAGNAVIESAEVAGPGFINLRLRHEFLAQNIHAALNDARF", "values": [{"measurement": "protein production", "result": "not failed"}]}
{"sequence": "MPNHQPVKKFKIIGGACKGLGLNLPNISSTRPTKAIVRESFFNTLQAEINGAHFIEVFSGSASMGLEALSRGAKSAVFFEQNKSAYKTLLENISLFKNRLKKEMEIQTFLDDAFKLLPTLCLKNGVLNIIYLDPPFETSGFLGIYEKCFQALERLLKRFNPKNLLVVFEHESMHEMPKSLVTLAIIKQKKFGKTTLTYFQ", "values": [{"measurement": "protein production", "result": "failed"}]}
{"sequence": "ELSERQRAEQKLLEVNQLQKGIFDVANYMIISTDRRGIISTFNRTAEEILGYTAAELIGQQTPLIFHDQEEMASEAVQLSQQLQQTIRPNSIDMFAIPAIQWGVYEREWTYITKTGDRLPVYVSITALRDDQGKVDGLVGV", "values": [{"measurement": "protein production", "result": "failed"}]}
{"sequence": "MSTPDNRSVNFFSLFRRGQHYAKTWPMEKRLAPVFVENRVIRMTRYAIRFMPPVAVFTLCWQIALGGQLGPAVATALFALSLPMQGLWWLGKRSVTPLPPSILNWFYEVRGKLQEAGQALAPVEGKPDYQALADTLKRAFKQLDKTFLDDL", "values": [{"measurement": "protein production", "result": "not failed"}]}
